The results in this text go back to the nanobody polyreactivity screen of Harvey et al. (2022).

The nature of the data set: yeast display, Sf9 membrane polyspecificity reagent, FACS + sequencing; frameworks hold sequencing errors. The method, boiled down: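 Genes from sorted yeast were amplified by colony PCR, read by MiSeq 2 × 250 sequencing and filtered on CDR length. These cells carried a synthetic nanobody library in Saccharomyces cerevisiae BJ5465 and were sorted by FACS into low and high (top ~1%) gates on anti-HA and streptavidin fluorescence. Polyreactivity is labelled according to the gate of origin.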
Take “QVQLVESGGGLVQAGGSLRLSCAASGSNFRGNAMAWYRQAPGKERELVAAITYNDGGTYYADSVKGRFTISRDNAMNTVYLQMNLLKPEDTAVYYCAAVGTGNKSILYDYWGQGTQVTVSS”: the “polyreactivity (PSR sort gate)” value was “low polyreactivity”.
For the sequence “QVQLVESGGGLVQAGGSLRLSCAASGSNFRPYAMGWYRQAPGKERELVAAISSSGGSTYYADSVKGRFTISGDNAKHTVYLQMNSLKPEDTAVYYCAKDGVSFYWLNKYYYWGQGTQVTVSS”, the “polyreactivity (PSR sort gate)” value is reported as “low polyreactivity”.
Take “QVQLVESGGGLVQAGGSLRLSCAASGSNFRYYALGWYRQAPGKERELVAGNTGSTGRTYYADSVKGRFTISRDNAKNTVYLQMNRLKPEDTAVYYCATGIYRARTSSFRMGYWGQGTHVTVSS”: the “polyreactivity (PSR sort gate)” value is reported as “low polyreactivity”.
The same measure for “QVQLVESGGGLVQAGGSLRLSCAASGSNFRYYAMGWYSPAPGKERELVAAISQSGGSTYSADSVKGRFTISRDNAKTTVYLQMNSLKPEDTAVYYCAARRVDTRGHVRYRYYYWGQGTQVTVSS”: “high polyreactivity”.
The same measure for “QVQLVESGGGLVQAGGSLRLSCAASGSNFSFNGLGWYRQAPGKERGLVAAITTSGGSTYYADSVKGRFTISRDNAKNTVYLQMNSLTPEDTAVYYCAAVGPDNSLYEPMDYWGLGTQVTVSS”: “low polyreactivity”.
For the sequence “QVQLVESGGGLVQAGGSLRLSCAASGSNFSSNAMGWYRQAPGKERELVAAISRSGVTTYYADSVKGRFTISRDNAKNTVYLQMNSLKPEDTAVYYCAGQPYSRLYGRYRGFQYKYVYWGHGTQVTVSS”, the “polyreactivity (PSR sort gate)” value was “low polyreactivity”.
As to “QVQLVESGGGLVQAGGSLRLSCAASGSNFTNYAMGWYRPAPGKERELVARITSSGSRTYYADSVKGRFTISRDNAKNTVYLQMNSLKPEDTAVYYCNAETYYLRYGRGYRRFDYWGQGTQVTVSS”, the “polyreactivity (PSR sort gate)” value was “high polyreactivity”.
For “QVQLVESGGGLVQAGGSLRLSCAASGSNFVNNAMGWYRQAPGKERELVASITWSGGRTYYADSVKGRFTISRDNAKNTVDLQMNSLKPEDTAVYYCNKRQYSRTFRYGYWGQGTEVTVSS”, the “polyreactivity (PSR sort gate)” value is “high polyreactivity”.
For the sequence “QVQLVESGGGLVQAGGSLRLSCAASGSNFVRNTMGWYRQAPGKESELVATISSGGRTNYADSVKGRFTISRDNAKNTVYLQLNSLKPEDTAVYYCNRPRWYGGSPYYYWGQGTQVTVSS”, the “polyreactivity (PSR sort gate)” value is “high polyreactivity”.
The value for “QVQLVESGGGLVQAGGSLRLSCAASGSNFYFYAMGWYRHAPGKERELVAGITSGGITYYADSVKGRFTISRDNAKNTVYLQLNSLKPEDTAVYYCAADFTRRWSKSTPFDSWGQGTQVTVSS” was “high polyreactivity”.
As for “QVQLVESGGGLVQAGGSLRLSCAASGSNFYLYAMGWYRQAPGKERELVAAITSIGGSTYADSVKGRFTISRDNAKNTVYLQMNSLKPEDTAVYYCNTDEYPLTVQVQYYYWGQGTQVTVSS”, the “polyreactivity (PSR sort gate)” value was “low polyreactivity”.
The same measure for “QVQLVESGGGLVQAGGSLRLSCAASGSNIDGYAMGRYRQAPGKEREFLAAISFSSASTYYADSVKGRFTISRDNAKNSVYLQMNSLKPEDTAVYYCNADFFESGGSIEYDSSGQGTQVTVSS”: “low polyreactivity”; for “QVQLVESGGGLVQAGGSLRLSCAASGSNIRSNAMGWYRQAPGKERELVAAISRTGGRTYYADSVKGRFTISRDNEKNTVYLQMKSLKPEYTAVYYCAASSSGSGGYWGQCTQVTVSS”: “high polyreactivity”.
The value for “QVQLVESGGGLVQAGGSLRLSCAASGSNLVWNAMGWYRQAPGKERELVAAIDRDTTTYYADSVKGRFTISRDNAKNTVYLQMNSLKPEDTAVYYCAAESWYYLYDYWGQGTQVTVSS” was “high polyreactivity”.
“QVQLVESGGGLVQAGGSLRLSCAASGSNLYKYAMGWYRPAPGKERELVASITWSDGNTNYADSVKGRFTISRHNAKNTVYLQMNSLKPEDTAVYYCAADWRYILRGDDYWGQGTQVTVSS”: the “polyreactivity (PSR sort gate)” value is “low polyreactivity”.
The value for “QVQLVESGGGLVQAGGSLRLSCAASGSNSPTMLMGGYRKAPGKERELVAAISGGGRTNYADSVKGRFTISRDNAKNTVYLQMNSLKPEETAVYYCAAGGYYQRTRGDWGQGTQVTVSS” was “high polyreactivity”; that for “QVQLVESGGGLVQAGGSLRLSCAASGSNSYFNAMGWYRQAPGKERELVAAITSGGSTYYADSVKGRFTISRDNAKNTVYLQMNSLKPEDTAVYYCNAPLEWGVYAAQNWDDGYWGQGTQVTVSS” was “low polyreactivity”.
For the sequence “QVQLVESGGGLVQAGGSLRLSCAASGSNVPSYAMGWYRQAPGKERELVAAINSGGGTNYADSVKGRFTISRDNAKNTVYVQMNSLKPEDTAVYYCAKSRYDYTKTEGGYWGQGTQVTVSS”, the “polyreactivity (PSR sort gate)” value is “low polyreactivity”.
As for “QVQLVESGGGLVQAGGSLRLSCAASGSNVYIYAMGWYRQAPGKERELVASINSGGSTNYADSVKGRFTISRDNAKNTVYLQMNSLKPEDTAVYYCNADVYDTYSPLGYYYWGQGTQVTVSS”, the “polyreactivity (PSR sort gate)” value is given as “low polyreactivity”.
The value for “QVQLVESGGGLVQAGGSLRLSCAASGSPFGFNAMGWYRQAPGKERELVAAISRSGTRTYYADSVKGRFTISRDNEKNTVYLQMNSQKPEDTAVYFCAADSTLSRYDYWGQGTQVTVSS” was “high polyreactivity”.
The same measure for “QVQLVESGGGLVQAGGSLRLSCAASGSPFLTNAMGWDRQAPGKERELVAAITWSTGSTYYADSVKGRFTISRDNAKNTVYLQMNSLKPEDTAVYYCNARSEVSYWWGGYWGEGTQVTVSS”: “low polyreactivity”; for “QVQLVESGGGLVQAGGSLRLSCAASGSPFNYYAMGSYRQAPGKERELVAGINRGGSTNYADSVKGRFTISRDNAKNTVYLQMNSLKPEDTAVYYCAVRAYRWRSTLGLYYWGQGTQVTVSS”: “high polyreactivity”.
Take “QVQLVESGGGLVQAGGSLRLSCAASGSPFRTYAIGWYRQAPGKERELVASIDSTGSTNYADSVKGRFTISRDNAKNTVYLQMNCLKAEVTAVYYCAAETYSYPPFYAYDYWGQGTQVTVSS”: the “polyreactivity (PSR sort gate)” value is listed as “low polyreactivity”.
For the sequence “QVQLVESGGGLVQAGGSLRLSCAASGSPFVDNDMGWSRQAPGKDRELVAAAITARGGSTYYADSVKGRFTISRDNAKNTVYLQMNSLKPEDTAVYYCAAGRPGELDYWGQGTQVTVSS”, the “polyreactivity (PSR sort gate)” value was “low polyreactivity”.
As to “QVQLVESGGGLVQAGGSLRLSCAASGSRFSHYSMGWYRQAPGKERDLVATITGTGVRTSYADSVKGRFTISRDNAKNTVYLQMNSLKAEDTAVYYCAADGDYDPNLYGYWGQGTQVTVSS”, the “polyreactivity (PSR sort gate)” value was “low polyreactivity”.
As for “QVQLVESGGGLVQAGGSLRLSCAASGSSFDDYTMVWYRQAPGKERELVADSTESGGTTYADSVKGRFTISRDNAKNTVYLQMYSLKPVDTAVYYCNADIYISPLVQVSKGYDYWGQGTQVTVSS”, the “polyreactivity (PSR sort gate)” value is reported as “low polyreactivity”.
Take “QVQLVESGGGLVQAGGSLRLSCAASGSSFNSYAMGWYRQAPGKERELVASITRGGSTYYADSVKGRFTISRDNAKTTVYLQMNSLKPEDTAVYYCAARFTQHNYWAMDYRGQGTQVTVSS”: the “polyreactivity (PSR sort gate)” value is recorded as “high polyreactivity”.
The same measure for “QVQLVESGGGLVQAGGSLRLSCAASGSSFPRYAMAWYTPAPGKERELVAAISSGGSTYYADSVKGRFTISRDNAKNTVYLQMNSLKPEDTAVYYCTARRSRSRYDYWGQVTQVTVSS”: “high polyreactivity”.
With “QVQLVESGGGLVQAGGSLRLSCAASGSSFRRNAMGWYRQAPGKERELVAAITRGGGSTYYADSVKGRFTISRDNAKNTVYLQMNSLKPEDNAVYYCAAQISATRETMDYWGQGTQVTVSS”, the “polyreactivity (PSR sort gate)” value is on record as “high polyreactivity”.
Turning to “QVQLVESGGGLVQAGGSLRLSCAASGSSFRVYAMGWYRQAPGKERELVAAISGSGGSTYYADSVKGRFTISRDNAKNTVYLQMNSLKPVDTAVYYCAARSWYTEYYWGQCTQVTVSS”, the “polyreactivity (PSR sort gate)” value is “high polyreactivity”.
As for “QVQLVESGGGLVQAGGSLRLSCAASGSSFSYYTMGWYRQAPGKERELVAAITSGGPTNYADSVKGRFTISRDNAKKTVYLQMNSLKPEDTAVYYCAADLYYGWGYYYWGQGTQVTVSS”, the “polyreactivity (PSR sort gate)” value was “low polyreactivity”.
Take “QVQLVESGGGLVQAGGSLRLSCAASGSSFTGNAMGWYRQAPGKERELVASINGSSGSTYYADSVKGRFTISRDNAKNTVYLEMNSLKPEDTAVYYCNADTYYVEYTAFDYWGQGTQVTVSS”: the “polyreactivity (PSR sort gate)” value is recorded as “low polyreactivity”.
The value for “QVQLVESGGGLVQAGGSLRLSCAASGSSFVLYAMGWYRQAPGKERELVAAISLSVGSTYYADSVKGRFTISRDNAKNTVYLQMNSLKPEDTAVYDCNARSSIVSYYWYHYWTREFDYWGQGTQVTVSS” was “low polyreactivity”; that for “QVQLVESGGGLVQAGGSLRLSCAASGSSFYDNAMGWYRQAPAKERELVAAITWDGDGTYYADSVKGRFTISRDNAKNTVYLQMNSLKPEDTAVYYCAADYYLVGFDYYYWYGYWGQGTQVTVSS” was “low polyreactivity”; that for “QVQLVESGGGLVQAGGSLRLSCAASGSSIYVYVMGWYRQAPGKERELVAVIDWRGGSTYYADSVKGRFTISRDNAKNTVYLQMNSLKPEDSSVYYCNKVAQFYYKLPYYKERDWGQGTQVTVSS” was “low polyreactivity”.
On to “QVQLVESGGGLVQAGGSLRLSCAASGSSKLRLWDGIDRRLGKKGSWLPLFVLVVLRNYADSVKGRFTISRDNAKNTVYLQMNSLKPEDTAVYYCAATPIGSGGWGDYWGQGTQVTVSS”, for which the “polyreactivity (PSR sort gate)” value is reported as “low polyreactivity”.
The value for “QVQLVESGGGLVQAGGSLRLSCAASGSSLTRNDMGWHRLAPGKERELVAAISFSGSDTYYADSVKGRFTISRDNAKNTVYLQMNSLKPEDTAVYYCAAEYGGYSKYLFIGRYYWGQGTQVTVSS” was “low polyreactivity”; that for “QVQLVESGGGLVQAGGSLRLSCAASGSSSRRMIMGRYRQAPGKERELVAAISGSGGSTYYADSVKGRFTISRDNAKNTVYLQMNSLKPEDTAVYYCAAVLQSCYGYEYWGQGTQVTVSS” was “high polyreactivity”; that for “QVQLVESGGGLVQAGGSLRLSCAASGSTFAANAMGWYRQAPGKERELVAAMTSSGGSTYYADSVKGRFTISRDNAKNTVYLQMNSLKPEDTAVYYCNKDIERYVRIYDSWGQGTQVTVSS” was “low polyreactivity”.
The same measure for “QVQLVESGGGLVQAGGSLRLSCAASGSTFAANAMGWYRQAPGKERELVAVIRRGGSTTYADSVKGRFTISRDNAKNTVYLQMNSLKPEDTAVYYCHARVTLGRPLFTYLVRYEYWGQGTQVTVSS”: “high polyreactivity”.
